Data published in the emibetuzumab library of Makowski et al. (2022).

B1: VH:VL chains; a variant is named by its letters at X, in order (parent)
chain 1: QVQLVQSGAEVKKPGASVKVSCKASGYTFTDYXMHWVRQAPGQGLEWMGXVNPNXXXTTYNQKFEGRVTMTTDTSTSTAYMELRSLRSDDTAVYYCARXNXLDXWGQGTTVTVSS
chain 2: DIQMTQSPSSLSASVGDRVTITCSVSSSVSSIYLHWYQQKPGKAPKLLIYSTSNLASGVPSRFSGSGSGTDFTLTISSLQPEDFATYYCQVYSGYPLTFGGGTKVEIK

Variants of: B1
Assay: yeast display scFab, FACS + sequencing
Method in brief: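 For the non-specific binding call, a heavy-chain CDR mutant scFab library on the yeast surface was FACS-sorted and samples from two replicates were deep sequenced. Cells were labelled with anti-Myc and either biotinylated ovalbumin (260 μg/mL in PBSB, 3 h, room temperature) or soluble membrane proteins (130 μg/mL, 20 min on ice), with gates on the top 25% and bottom 10% of binders. With membrane protein and ovalbumin samples pooled, a sequence in ≥3 of 4 positive samples and no negatives was scored positive, and the converse rule scored negatives.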

| Variant | non-specific binding call |
| --- | --- |
| VTGTGSLV | no binding |
| VTGTGSLD | no binding |
| VTGGDDSA | no binding |
| VTGTGDGV | no binding |
| VTGTGDGA | no binding |
| ATGTGSGA | no binding |
| VTGGDSLV | no binding |
| VTREGAVA | no binding |
| VTGGDDVY | no binding |
| YTGTSDVY | no binding |
| YTGTSDVS | no binding |
| VTGKGDGV | no binding |
| ATKAASWV | no binding |
| VTGRAAWV | no binding |
| STGKGSGV | no binding |
| YTGTSSGA | no binding |
| YTRGADVA | no binding |
| YTRGADVV | no binding |
| VTGGDSGD | no binding |
| YTGTSDGV | no binding |
| VTGTGSSA | no binding |
| VTGTGSSD | no binding |
| YTREGAVA | no binding |
| YTGGNDAD | no binding |
| DTGRGSGV | no binding |

| Variant | non-specific binding call |
| --- | --- |
| DTGTGDVF | no binding |
| DTGTGDVA | no binding |
| VTGTGYVF | no binding |
| YTKTGDAV | no binding |
| DTKAASGV | no binding |
| YTKRSSGA | binds |
| DTKAADWV | no binding |
| DTKAADWY | no binding |
| FTGTGSGA | no binding |
| ATGGDDWF | no binding |
| DTREGDAV | no binding |
| YTKRGSAA | binds |
| VTGGDSAS | no binding |
| STGGNDAD | no binding |
| DTKRTAGD | no binding |
| STGGDDGA | no binding |
| STGGDDGF | no binding |
| DTGTGDWV | no binding |
| DTGTGSWD | no binding |
| YTRGAAGY | no binding |
| YTRGAAGV | no binding |
| VTGRGDVF | no binding |
| VTGRGDVA | no binding |
| DTGTGSVD | no binding |
| VTGGDSSA | no binding |

| Variant | non-specific binding call |
| --- | --- |
| VTGGDSSD | no binding |
| YTKRGDWD | binds |
| YTGTSSSV | no binding |
| YTGTSSSA | no binding |
| DTREGDGA | no binding |
| VTGGDSWF | no binding |
| STKRSFWA | binds |
| YTGTSAGV | no binding |
| YTGTSAGD | no binding |
| DTGTGSSA | no binding |
| YTKAASWV | no binding |
| FTKAASWV | no binding |
| YTRGAALA | no binding |
| FTRGADAV | no binding |
| VTGTSDVA | no binding |
| DTRGADAV | no binding |
| YTRGADLA | no binding |
| FTGRGAAA | binds |
| YTRGADGA | no binding |
| YTRGADGS | no binding |
| YTRGADGV | no binding |
| YTGTSDLV | no binding |
| YTGTSDLA | no binding |
| YTGTSDLD | no binding |
| DTKGDSVS | no binding |

| Variant | non-specific binding call |
| --- | --- |
| YTGRAALA | no binding |
| DTGTGDGV | no binding |
| VTKETFSF | no binding |
| DTGTSAAF | binds |
| YTGGDDWV | no binding |
| DTGGSASA | no binding |
| STRGADAV | no binding |
| YTGTGAVF | no binding |
| VTKGGSSA | no binding |
| DTGTGDSA | no binding |
| VTGGGDGS | no binding |
| VTGGGDGA | no binding |
| YTKEASGY | binds |
| STGTGYVF | no binding |
| VTGTGDAD | no binding |
| VTGTGDAV | no binding |
| YTRGADWA | no binding |
| YTRGADWY | no binding |
| YTGKSVAV | binds |
| DTGGDDWF | no binding |
| VTKTGAAA | no binding |
| DTKAAAVV | no binding |
| YTRGASGA | no binding |
| DTKRTAVA | binds |
| YTKETAAD | binds |

| Variant | non-specific binding call |
| --- | --- |
| YTGTSDWV | no binding |
| YTGTSDWY | no binding |
| YTRGAASD | no binding |
| FTRESFAA | binds |
| YTRGAAVA | no binding |
| FTGTSDLY | no binding |
| VTGTGDWV | no binding |
| VTGTGDWF | no binding |
| VTGGGASF | no binding |
| VTGTGAVY | no binding |
| VTGTGAVV | no binding |
| FTRAGAAA | binds |
| FTGRGSAD | binds |
| DTGGDDGF | no binding |
| YTKRSAVV | binds |
| YTGRGSLD | binds |
| VTGGDDWF | no binding |
| VTGGDDWV | no binding |
| VTGGDDWY | no binding |
| VTGTGAGV | no binding |
| VTGGSDVY | no binding |
| VTRGADGV | no binding |
| DTGTGALV | no binding |
| YTGTSASD | no binding |
| DTGGGAWD | no binding |

| Variant | non-specific binding call |
| --- | --- |
| YTGTSSAD | no binding |
| FTGRGAGV | binds |
| DTGRADWA | no binding |
| FTKASYVY | binds |
| YTGTSSLD | no binding |
| VTGTGSVD | no binding |
| VTGTSSLD | no binding |
| STGGDDVY | no binding |
| YTGGDSVD | no binding |
| YTGGDSVA | no binding |
| VTGGDYAV | no binding |
| ATGRADWA | no binding |
| VTGTASSV | no binding |
| VTKAASWV | no binding |
| FTGRGAVA | binds |
| YTGGDDVY | no binding |
| YTGGDDVD | no binding |
| YTGGDDVV | no binding |
| VTGGDDGY | no binding |
| STGTGSGA | no binding |
| DTKAAAGD | no binding |
| VTRGADAA | no binding |
| VTRGADAV | no binding |
| ATRGADAV | no binding |
| DTGTGASD | no binding |

| Variant | non-specific binding call |
| --- | --- |
| VTGTGDVY | no binding |
| VTGTGDVV | no binding |
| YTKGTSVA chain 1 E65K | binds |
| ATGRADGV | no binding |
| VTGTGSGD | no binding |
| VTGTGSGF | no binding |
| DTGTSDLY | no binding |
| DTREGAVV | no binding |
| DTGTGDAA | no binding |
| YTRAGSAA | binds |
| YTGTGSGA | no binding |
| VTGTGAAD | no binding |
| VTGTGAAV | no binding |
| ATGGDSGD | no binding |
| STGRAALA | no binding |
| DTKAASSA | no binding |
| DTKAASSS | no binding |
| STKAASWV | no binding |
| DTGTGAGD | no binding |
| DTGTGAGV | no binding |
| VTGGDSVD | no binding |
| YTRAGAAA | binds |
| FTGTSAAF | binds |
| VTKESAAV | no binding |
| FTGRAAAV | no binding |

| Variant | non-specific binding call |
| --- | --- |
| YTGRGSAA | binds |
| YTGRGSGV | binds |
| DTKAASWV | no binding |
| DTKAASWA | no binding |
| DTGGGDLA | no binding |
| STGGGDGV | no binding |
| YTGGGDGV | no binding |
| STGTGALA | no binding |
| YTKKTFSY | binds |
| FTREASAV | binds |
| YTGGDDGF | no binding |
| ATKGAAVA | no binding |
| VTGTSDLY | no binding |
| VTKTGDVA | no binding |
| DTKAADVA | no binding |
| STGTSDLY | no binding |
| STGTSDVF | no binding |
| YTGTSDAV | no binding |
| DTGKDAGD | no binding |
| DTKAADGV | no binding |
| ATGRAAGD | no binding |
| STGRADWA | no binding |
| ATGGDDGF | no binding |
| ATKTAFVS chain 1 M34I | no binding |
| ATGRASLD | no binding |

| Variant | non-specific binding call |
| --- | --- |
| YTGTSAVS | no binding |
| YTGTSAVA | no binding |
| YTGTSAVV | no binding |
| DTGTGSGA | no binding |
| YTGTSAWA | no binding |
| FTGRAYGF | binds |
| ATGRADVY | no binding |
| YTKTSSVD | binds |
| DTGGGAGA | no binding |
| DTREGDVD | no binding |
| DTREGDVA | no binding |
| DTREGDVY | no binding |
| VTGRGDLA | no binding |
| VTGRAALA | no binding |
| VTKTGDAV | no binding |
| FTKGSAGY | binds |
| ATGGGYVA | binds |
| DTGGGDAV | no binding |
| DTGGGDAY | no binding |
| DTGGGDAA | no binding |
